Measurements: patent US8501695B2, “Tissue kallikrein for the treatment of diseases associated with amyloid protein” (DiaMedica, Inc., priority 2007, dated 2013)

Tested on: rat mixed cortical cultures (RMCC)
Assay: Aβ1-42 toxicity in rat mixed cortical cultures, neuronal survival (NeuN cell count)
Assay type: cell-based
Method: Whether pre-treatment with tissue kallikrein protects rat mixed cortical cultures against exposure to human amyloid beta peptide (Aβ1-42) was investigated. Cell death was analyzed by LDH-release, an indication of necrosis, and cell viability was also analyzed by neuronal cell count. First (Study Arm A), tissue kallikrein was added to the cells only prior to the Aβ1-42 insult (at −24 h and at −30 min). Whereas in the second part (Study Arm B), tissue kallikrein was added to the cells prior to (−30 min) and also at +24 h after the Aβ1-42 insult. At the +24 h time point, cell culture media were not changed (tissue kallikrein or corresponding amount of vehicle was added to the wells), whereas at −24 h and −30 min time point cell culture media were changed.
[…] Cell Culture. Mixed cortical cultures were prepared from E18 Wistar rat embryos (National Animal Center, Kuopio, Finland). The cortices were dissected out, and the tissue cut to small pieces. The cells were separated by 15-min incubation with DNase and papain. The cells were collected by centrifugation (1500 rpm, 5 min). The tissue was triturated with a pipette and the cells were plated on poly-L-lysine-coated 48-well plates, 300,000 cells/cm^2, in MEM (2 g/L glucose) supplemented with 2 mM glutamine, 0.1 μg/ml gentamicin, 10% heat-inactivated fetal bovine serum (FBS-HI) and 10% heat-inactivated horse serum (HS-HI). After 3-4 h, the media were changed to MEM (2 g/L glucose) supplemented with 2 mM glutamine, 0.1 μg/ml gentamicin, 5% HS-HI. After three days in vitro, media containing MEM (2 g/L glucose) supplemented with glutamine, gentamicin, and 5% of both sera were changed to the cells. On day 6 in vitro, the unwanted cell division was inhibited by adding cytosine arabinoside (10 μM final concentration) for 24 h. The cultures were refed with MEM (2 g/L glucose) supplemented with glutamine, gentamicin, and 5% HS-HI before experiments.
Aβ1-42 Exposure. Tissue kallikrein (SEQ ID NO:1) was dissolved and further diluted in MEM supplemented with glucose, glutamine, gentamicin, and 5% HS-HI. As a control for total neuronal death, 300 μM N-methyl-D-aspartic acid (NMDA) for 48 h was used, and 10 μM Aβ1-42 for 48 h was used to induce approximately 30-50% cell death. Wells treated with media only served as 0-control. Tissue kallikrein or vehicle was pipetted to the cells −24 h and −30 min before adding 10 μM Aβ1-42 (final concentration). Tissue kallikrein or vehicle was again pipetted to the cells at +24 h after exposure.
Immunocytochemistry for Neuronal Survival. For neuronal counts, the cultures were fixed with 4% paraformaldehyde in 0.01 M PBS for 30 min and washed twice with PBS. The fixed cells were first permeabilized, and non-specific binding blocked by 30 min incubation with blocking buffer containing 1% bovine serum albumin and 0.3% Triton® X-100 in PBS. Anti-neuronal nuclei antibody (anti-NeuN, dilution 1:500, Chemicon, Temecula, Calif.) was used as the primary antibody. The cells were incubated with the primary antibody for 48 h, followed by incubation with a biotinylated secondary antibody (1:200, Vector Labs) for 2 h, and the avidin-biotin-peroxidase complex (ABC-reagent, 1:200, Vector ABC Elite Kit, Vector Labs) for 2 h. The positive cells were visualized using Ni-enhanced DAB as a substrate (DAB Substrate kit, Vector Labs). The NeuN immunopositive neurons were counted using a light microscope. Altogether, 2 fields of each well were counted. The results are shown as percent viable neurons.
Data Analysis. The number of wells per compound concentration used was 6 (n=6). […] Statistical analysis was performed using StatsDirect statistical software. The values were analyzed by one-way ANOVA followed by Dunnet's test (comparison to the vehicle-treated group). Results are presented as mean±standard deviation (SD) and differences are considered to be statistically significant at the P<0.05 level.

B1: tissue kallikrein: serine protease that cleaves kininogen into kallidin; polypeptide SEQ ID NO:1 (Sus scrofa kallikrein 1), KLK1 from Sigma (protein, listed as Sus scrofa)
chain: MWSLVMRLALSLAGTGAAPPIQSRIIGGRECEKDSHPWQVAIYHYSSFQCGGVLVDPKWVLTAAHCKNDNYQVWLGRHNLFENEVTAQFFGVTADFPHPGFNLSLLKNHTKADGKDYSHDLMLLRLQSPAKITDAVKVLELPTQEPELGSTCQASGWGSIEPGPDDFEFPDEIQCVELTLLQNTFCADAHPDKVTESMLCAGYLPGGKDTCMGDSGGPLICNGMWQGITSWGHTPCGSANKPSIYTKLIFYLDWINDTITENP
modifications: 125I label in one form
- cell counts (survival) after Aβ1-42 insult (Study Arm A, 1.0 μg/ml): provided protection
- cell counts (survival) after Aβ1-42 insult (Study Arm A, 10 μg/ml): protection provided by 10 μg/ml was statistically significant
- cell counts (survival) after Aβ1-42 insult (Study Arm A, lower concentrations): did not affect cell counts
- cell counts (survival) after Aβ1-42 insult (Study Arm B, 1.0 μg/ml): Increases in cell counts
- cell counts (survival) after Aβ1-42 insult (Study Arm B, 10 μg/ml): protection provided by 10 μg/ml was statistically significant
- cell counts (survival) after Aβ1-42 insult (Study Arm B, lower concentrations): did not affect cell counts
